The source of these data is paper PMC11377762.

This assay concerns the target human wild-type D3R (HASS-FLAG-EGFP-3C protease-D3R in pcDNA4/TO) (human) (UniProt P35462).
UniProt P35462, sequence (P35462 whole entry): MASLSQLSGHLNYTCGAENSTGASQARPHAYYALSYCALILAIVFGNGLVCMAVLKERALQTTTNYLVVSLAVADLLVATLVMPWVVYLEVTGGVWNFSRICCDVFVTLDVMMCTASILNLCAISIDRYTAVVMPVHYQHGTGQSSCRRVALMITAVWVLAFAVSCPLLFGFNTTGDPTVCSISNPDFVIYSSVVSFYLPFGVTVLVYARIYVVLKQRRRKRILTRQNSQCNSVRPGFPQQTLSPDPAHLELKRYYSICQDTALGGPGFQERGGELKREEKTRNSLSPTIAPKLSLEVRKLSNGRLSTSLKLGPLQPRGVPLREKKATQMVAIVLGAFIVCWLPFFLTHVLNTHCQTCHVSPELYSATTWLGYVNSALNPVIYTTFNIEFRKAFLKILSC

Regarding “GαOA-RLuc8 (from UniProt P09471 1-354) (natural protein)”, the potency of FOB02-04A at D3R in the TRUPATH BRET2 assay in HEK293T cells, GOA against Gi1 was 135 fold.
